The labels stand for the following.
T1: KSHV SOX (alkaline exonuclease) (Kaposi's sarcoma-associated herpesvirus …, UniProt P88925 1-486)
T1 sequence: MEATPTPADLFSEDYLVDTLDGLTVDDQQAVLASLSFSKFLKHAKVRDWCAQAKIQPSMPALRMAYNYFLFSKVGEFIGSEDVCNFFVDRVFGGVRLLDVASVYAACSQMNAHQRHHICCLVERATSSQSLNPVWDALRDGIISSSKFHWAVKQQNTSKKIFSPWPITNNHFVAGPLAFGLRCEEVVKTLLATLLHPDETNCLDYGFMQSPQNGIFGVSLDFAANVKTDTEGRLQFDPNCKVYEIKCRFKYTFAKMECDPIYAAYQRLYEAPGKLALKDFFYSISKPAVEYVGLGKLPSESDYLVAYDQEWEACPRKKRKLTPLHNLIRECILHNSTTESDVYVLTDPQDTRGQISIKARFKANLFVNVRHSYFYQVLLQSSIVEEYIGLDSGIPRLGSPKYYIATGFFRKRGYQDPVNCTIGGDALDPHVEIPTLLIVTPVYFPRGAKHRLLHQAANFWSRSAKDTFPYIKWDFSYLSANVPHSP

B1: dsDNA-5'P (dsDNA)
DNA 1: GGGGATCCTCCCAGTCGACC
DNA 2: GGTCGACTAGGAGGATCCCC
modifications: 5' phosphate on strand 1
B2: dsRNA-5'P (dsRNA)
RNA 1: UGGUUUACAUGUUCCAAUAUU
RNA 2: AAUAUUGGAACAUGUAAACCA
modifications: 5' phosphate on strand 1

This series concerns the target T1, KSHV SOX (alkaline exonuclease). The series is described as follows: fluorescence anisotropy.
Consider UGGUUUACAUGUUCCAAUAUU (ssRNA, 5' phosphate) [ssRNA-5'P], for which the affinity, expressed as Kd, was 87 µM. On to B1, for which the Kd came to 6 µM. Under B2 stands 95 µM.

Source of the values: paper PMC3141240.
